# Measurements as given in patent US20220175942A1 (published 2022).
# T1: CCL4 (human, UniProt P13236 24-92)
# T1 chain: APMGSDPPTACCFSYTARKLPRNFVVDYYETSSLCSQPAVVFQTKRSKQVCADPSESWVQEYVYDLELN
# T2: CCL18_HUMAN (human, UniProt P55774 21-89)
# T2 chain: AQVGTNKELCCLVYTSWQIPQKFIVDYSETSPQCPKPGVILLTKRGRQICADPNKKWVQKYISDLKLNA
# T3: CCL1_HUMAN (human, UniProt P22362 24-96)
# T3 chain: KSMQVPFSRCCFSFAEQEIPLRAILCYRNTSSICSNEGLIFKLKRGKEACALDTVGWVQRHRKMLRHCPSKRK
# T4: CCL8_HUMAN (human, UniProt P80075 24-99)
# T4 chain: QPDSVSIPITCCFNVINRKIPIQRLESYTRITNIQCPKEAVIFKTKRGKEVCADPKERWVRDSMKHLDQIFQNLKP
# T5: CCL15_HUMAN (human, UniProt Q16663 22-113)
# T5 chain: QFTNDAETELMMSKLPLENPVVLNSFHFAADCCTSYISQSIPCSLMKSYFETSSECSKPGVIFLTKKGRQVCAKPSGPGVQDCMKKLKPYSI
# T6: CCL17_HUMAN (human, UniProt Q92583 24-94)
# T6 chain: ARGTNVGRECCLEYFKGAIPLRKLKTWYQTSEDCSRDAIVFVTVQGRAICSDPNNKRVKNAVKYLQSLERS
# T7: CCL5_HUMAN (human, UniProt P13501 24-91)
# T7 chain: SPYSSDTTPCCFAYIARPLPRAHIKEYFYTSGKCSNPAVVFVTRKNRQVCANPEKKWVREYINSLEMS
# T8: CCL3_HUMAN (human, UniProt P10147 24-92)
# T8 chain: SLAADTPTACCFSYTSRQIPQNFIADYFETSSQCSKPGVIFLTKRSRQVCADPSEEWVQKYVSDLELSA
# T9: CCL19_HUMAN (human, UniProt Q99731 22-98)
# T9 chain: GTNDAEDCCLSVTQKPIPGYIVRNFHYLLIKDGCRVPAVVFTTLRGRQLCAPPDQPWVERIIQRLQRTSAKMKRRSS
# T10: CCL22_HUMAN (human, UniProt O00626 25-93)
# T10 chain: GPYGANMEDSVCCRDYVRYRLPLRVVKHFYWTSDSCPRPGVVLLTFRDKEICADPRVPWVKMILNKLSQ
# B1: P1243_AMBAM (other)
# chain: RNHTEDNSTEYYDYEEARCACPARHLNNTNGTVLKLLGCHYFCNGTLCTAPDGYPCYNLTAQQVRTLTTYPNTSCAVGVCMKGTCVKNGTMEQCFKTP
# Key:
# Test in all cases: BLI
# CCL16_HUMAN = molecular target: CCL16_HUMAN
# CCL13_HUMAN = molecular target: CCL13_HUMAN
# CCL4L1_HUMAN = molecular target: CCL4L1_HUMAN
# CCL3L1_HUMAN = molecular target: CCL3L1_HUMAN
# CCL7_HUMAN = molecular target: CCL7_HUMAN
# CCL14_HUMAN = molecular target: CCL14_HUMAN
# CCL21_HUMAN = molecular target: CCL21_HUMAN
# CCL4 = molecular target: T1, CCL4
# CCL18_HUMAN = molecular target: T2, CCL18_HUMAN
# CCL1_HUMAN = molecular target: T3, CCL1_HUMAN
# CCL11_HUMAN = CCL11_HUMAN (human, UniProt P51671 24-97)
# CCL8_HUMAN = molecular target: T4, CCL8_HUMAN
# CCL20_HUMAN = CCL20_HUMAN (human, UniProt P78556 27-96)
# CCL15_HUMAN = molecular target: T5, CCL15_HUMAN
# CCL17_HUMAN = molecular target: T6, CCL17_HUMAN
# CCL5_HUMAN = molecular target: T7, CCL5_HUMAN
# CCL3_HUMAN = molecular target: T8, CCL3_HUMAN
# CCL19_HUMAN = molecular target: T9, CCL19_HUMAN
# CCL24_HUMAN = molecular target: CCL24_HUMAN
# CCL23_HUMAN = molecular target: CCL23_HUMAN
# CCL27_HUMAN = molecular target: CCL27_HUMAN
# CCL22_HUMAN = molecular target: T10, CCL22_HUMAN
# Sequence of CCL20_HUMAN (P78556 27-96): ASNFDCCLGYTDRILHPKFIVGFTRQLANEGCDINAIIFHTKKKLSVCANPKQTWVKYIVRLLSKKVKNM
# Sequence of CCL11_HUMAN (P51671 24-97): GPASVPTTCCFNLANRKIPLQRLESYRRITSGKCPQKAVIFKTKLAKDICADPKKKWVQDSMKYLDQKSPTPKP
binder,measurement,setting,value
B1,Kd,CCL16_HUMAN,0.926 nM
same,Kd,CCL13_HUMAN,0.788 nM
same,Kd,CCL4L1_HUMAN,35.4 nM
same,Kd,CCL3L1_HUMAN,9.61 nM
same,Kd,CCL7_HUMAN,8.66 nM
same,Kd,CCL14_HUMAN,0.816 nM
same,Kd,CCL21_HUMAN,6.54 nM
same,Kd,CCL4,15.3 nM
same,Kd,CCL18_HUMAN,0.00501 nM
same,Kd,CCL1_HUMAN,21.3 nM
same,Kd,CCL11_HUMAN,6.03 nM
same,Kd,CCL8_HUMAN,21.9 nM
same,Kd,CCL20_HUMAN,8.34 nM
same,Kd,CCL15_HUMAN,5.05 nM
same,Kd,CCL17_HUMAN,0.734 nM
same,Kd,CCL5_HUMAN,1.74 nM
same,Kd,CCL3_HUMAN,5.3 nM
same,Kd,CCL19_HUMAN,0.592 nM
same,Kd,CCL24_HUMAN,7.39 nM
same,Kd,CCL23_HUMAN,6.62 nM
same,Kd,CCL27_HUMAN,15.1 nM
same,Kd,CCL22_HUMAN,22.3 nM
